The target in this assay is human coxsackievirus and adenovirus receptor on CHO-CAR cells (human) (UniProt P78310).

With “soluble recombinant HAdV-5 fiber knob Y477A (from UniProt P11818 1-581) (domain or fragment)”, the inhibition of HAdV-5-EGFP transduction of CHO-CAR cells (EGFP-positive cells by flow cytometry) after preincubation with FK*, 0.0001 to 100 μg/10^5 cells, 1 h at 4°C (μg/10^5 cells) was over 100.

Source of the values: PMC5446653.
